Assay results taken from the supplement of paper PMC9112550, “Optimization of the antimicrobial peptide Bac7 by deep mutational scanning” (BMC Biology, 2022).

System: Escherichia coli TOP10
Experiment: shrunken log2 fold change of peptide-encoding DNA abundance (4.5 h post-induction vs induction); higher = less antimicrobial activity (less host growth inhibition)
Conditions: time post-induction: 4.5 h; library: site-saturation at positions 5, 18, 19, 20
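Note: peptides expressed intracellularly from a pBAD plasmid library in pooled LB shake-flask culture, induced with 0.3% L-arabinose, DNA abundance read by NGS, three biological replicates, DESeq2 with apeglm shrinkage.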

Row | Sequence | shrunken log2 fold change
1 | RRIRHRPPRLPRPRPRPWGMPRP | -0.0998
2 | RRIRWRPPRLPRPRPRPDNLPRP | -0.188
3 | RRIRVRPPRLPRPRPRPWDQPRP | -0.00149
4 | RRIRIRPPRLPRPRPRPHFTPRP | -0.0792
5 | RRIRLRPPRLPRPRPRPQPLPRP | 0.00386
6 | RRIRIRPPRLPRPRPRPFENPRP | -0.00783
7 | RRIRERPPRLPRPRPRPRGLPRP | 0.159
8 | RRIRMRPPRLPRPRPRPYWRPRP | -0.159
9 | RRIRKRPPRLPRPRPRPEYYPRP | -0.053
10 | RRIRRRPPRLPRPRPRPESMPRP | 0.358
11 | RRIRDRPPRLPRPRPRPKGKPRP | 0.142
12 | RRIRNRPPRLPRPRPRPWFMPRP | 0.0336
13 | RRIRVRPPRLPRPRPRPWCQPRP | -0.187
14 | RRIRHRPPRLPRPRPRPSSIPRP | -0.762
15 | RRIRVRPPRLPRPRPRPHKQPRP | 0.0253
16 | RRIRSRPPRLPRPRPRPLLNPRP | -0.117
17 | RRIRHRPPRLPRPRPRPRPNPRP | 0.321
18 | RRIRHRPPRLPRPRPRPFGDPRP | -0.257
19 | RRIRYRPPRLPRPRPRPTSWPRP | -0.138
20 | RRIRYRPPRLPRPRPRPYGSPRP | -0.843
21 | RRIRKRPPRLPRPRPRPSKSPRP | -0.141
22 | RRIRRRPPRLPRPRPRPGSSPRP | 0.103

Row | Sequence | shrunken log2 fold change
23 | RRIRERPPRLPRPRPRPVHYPRP | 0.198
24 | RRIRKRPPRLPRPRPRPKGAPRP | 0.217
25 | RRIRWRPPRLPRPRPRPFPFPRP | -0.28
26 | RRIRERPPRLPRPRPRPNDLPRP | -0.016
27 | RRIRKRPPRLPRPRPRPGWAPRP | 1.04
28 | RRIRARPPRLPRPRPRPTKFPRP | 0.0943
29 | RRIRSRPPRLPRPRPRPVDLPRP | -0.199
30 | RRIRQRPPRLPRPRPRPLVMPRP | -0.107
31 | RRIRYRPPRLPRPRPRPIARPRP | 0.00902
32 | RRIRLRPPRLPRPRPRPNFSPRP | -0.00932
33 | RRIRIRPPRLPRPRPRPHEIPRP | -0.256
34 | RRIRYRPPRLPRPRPRPEGPPRP | 0.12
35 | RRIRDRPPRLPRPRPRPAEYPRP | -0.491
36 | RRIRIRPPRLPRPRPRPGEFPRP | -0.0994
37 | RRIRRRPPRLPRPRPRPRQPPRP | 0.997
38 | RRIRDRPPRLPRPRPRPFRQPRP | -0.137
39 | RRIRKRPPRLPRPRPRPYQGPRP | -0.231
40 | RRIRSRPPRLPRPRPRPGCHPRP | 0.328
41 | RRIRQRPPRLPRPRPRPSLDPRP | -0.222
42 | RRIRRRPPRLPRPRPRPFAKPRP | 0.219
43 | RRIRDRPPRLPRPRPRPDGLPRP | 0.107
44 | RRIRTRPPRLPRPRPRPYMSPRP | -0.0144

Row | Sequence | shrunken log2 fold change
45 | RRIRRRPPRLPRPRPRPCQYPRP | -0.137
46 | RRIRHRPPRLPRPRPRPMNEPRP | -0.275
47 | RRIRQRPPRLPRPRPRPHYPPRP | -0.219
48 | RRIRFRPPRLPRPRPRPIEIPRP | -0.143
49 | RRIRSRPPRLPRPRPRPTVRPRP | -0.00791
50 | RRIRRRPPRLPRPRPRPVWDPRP | 0.246
51 | RRIRERPPRLPRPRPRPIAPPRP | 0.235
52 | RRIRCRPPRLPRPRPRPFKFPRP | -0.788
53 | RRIRLRPPRLPRPRPRPIQHPRP | -0.213
54 | RRIRRRPPRLPRPRPRPMMSPRP | 0.0352
55 | RRIRHRPPRLPRPRPRPYWIPRP | -0.124
56 | RRIRGRPPRLPRPRPRPESPPRP | 1.25
57 | RRIRVRPPRLPRPRPRPSYSPRP | -0.376
58 | RRIRYRPPRLPRPRPRPFEEPRP | -0.0344
59 | RRIRYRPPRLPRPRPRPLDVPRP | 0.0153
60 | RRIRQRPPRLPRPRPRPQMDPRP | -0.0516
61 | RRIRMRPPRLPRPRPRPNWPPRP | 0.096
62 | RRIRNRPPRLPRPRPRPFGKPRP | -0.0788
63 | RRIRCRPPRLPRPRPRPIRLPRP | -0.0542
64 | RRIRDRPPRLPRPRPRPGEVPRP | 0.247
65 | RRIRGRPPRLPRPRPRPQDMPRP | 0.0811
66 | RRIRIRPPRLPRPRPRPWGSPRP | -0.488

Row | Sequence | shrunken log2 fold change
67 | RRIRLRPPRLPRPRPRPGILPRP | -0.105
68 | RRIRNRPPRLPRPRPRPFRYPRP | -0.591
69 | RRIRHRPPRLPRPRPRPHHEPRP | -0.0148
70 | RRIRARPPRLPRPRPRPLQYPRP | 0.00717
71 | RRIRNRPPRLPRPRPRPGYMPRP | -0.281
72 | RRIRCRPPRLPRPRPRPCTEPRP | -0.186
73 | RRIRNRPPRLPRPRPRPPDWPRP | 0.641
74 | RRIRRRPPRLPRPRPRPIYLPRP | -0.205
75 | RRIRRRPPRLPRPRPRPKWQPRP | -0.175
76 | RRIRHRPPRLPRPRPRPISLPRP | -0.234
77 | RRIRGRPPRLPRPRPRPSSRPRP | 0.372
78 | RRIRGRPPRLPRPRPRPESKPRP | 1.32
79 | RRIRFRPPRLPRPRPRPRRKPRP | 0.246
80 | RRIRHRPPRLPRPRPRPAWGPRP | 0.542
81 | RRIRVRPPRLPRPRPRPSMWPRP | -0.104
82 | RRIRTRPPRLPRPRPRPGRKPRP | 0.282
83 | RRIRSRPPRLPRPRPRPAEAPRP | 0.429
84 | RRIRQRPPRLPRPRPRPYNEPRP | -0.184
85 | RRIRRRPPRLPRPRPRPWHGPRP | -0.202
86 | RRIRFRPPRLPRPRPRPLHDPRP | -0.107
87 | RRIRVRPPRLPRPRPRPHVFPRP | -0.0624
88 | RRIRNRPPRLPRPRPRPAWEPRP | 0.247

Row | Sequence | shrunken log2 fold change
89 | RRIRTRPPRLPRPRPRPDSHPRP | -0.153
90 | RRIRPRPPRLPRPRPRPKNKPRP | -0.187
91 | RRIRQRPPRLPRPRPRPDKLPRP | -0.522
92 | RRIRIRPPRLPRPRPRPKCYPRP | -0.00654
93 | RRIRNRPPRLPRPRPRPTNLPRP | -0.0193
94 | RRIRGRPPRLPRPRPRPVQGPRP | 0.301
95 | RRIRWRPPRLPRPRPRPICMPRP | -0.242
96 | RRIRYRPPRLPRPRPRPWQKPRP | -0.166
97 | RRIRERPPRLPRPRPRPRHFPRP | -0.419
98 | RRIRLRPPRLPRPRPRPTKDPRP | -0.183
99 | RRIRVRPPRLPRPRPRPYPGPRP | -0.183
100 | RRIRLRPPRLPRPRPRPARGPRP | 0.565
101 | RRIRRRPPRLPRPRPRPQVVPRP | 0.0705
102 | RRIRRRPPRLPRPRPRPVIIPRP | -0.106
103 | RRIRGRPPRLPRPRPRPRAVPRP | 1
104 | RRIRWRPPRLPRPRPRPMFKPRP | 0.0191
105 | RRIRHRPPRLPRPRPRPRSSPRP | -0.00605
106 | RRIRFRPPRLPRPRPRPTGIPRP | -0.26
107 | RRIRPRPPRLPRPRPRPSAQPRP | -0.0511
108 | RRIRIRPPRLPRPRPRPQMDPRP | -0.258
109 | RRIRARPPRLPRPRPRPCIVPRP | -0.233
